Laboratory results from patent US20210347908A1 (ELPISCIENCE SUZHOU BIOPHARMA, published 2021).

T1: 6×His tagged C57BL/6 mouse SIRPα ECD recombinant protein (mouse (C57BL/6), UniProt P97797 32-373)
T1 construct: extracellular domain; bought; also called mSIRPα (C57BL/6); mouse SIRPα (C57BL/6) ECD
T1 sequence: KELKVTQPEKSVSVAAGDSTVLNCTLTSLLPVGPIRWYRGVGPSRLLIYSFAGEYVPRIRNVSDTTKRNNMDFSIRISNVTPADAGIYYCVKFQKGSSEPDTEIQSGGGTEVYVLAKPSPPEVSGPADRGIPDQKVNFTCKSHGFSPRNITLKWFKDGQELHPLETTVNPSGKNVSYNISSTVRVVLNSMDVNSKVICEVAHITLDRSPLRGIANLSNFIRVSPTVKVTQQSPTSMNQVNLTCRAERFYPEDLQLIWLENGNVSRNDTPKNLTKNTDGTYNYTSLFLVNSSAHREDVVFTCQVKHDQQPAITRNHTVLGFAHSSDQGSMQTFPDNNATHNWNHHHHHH

T2: full length cyno SIRPα stably expressed on CHOK1 cells (cynomolgus monkey, UniProt A0A2K5VYQ9 31-507)
T2 construct: whole, on cells; also called CHOK1-cyno SIRPα-2A2 cells; CHOK1-cyno SIRPα
T2 sequence: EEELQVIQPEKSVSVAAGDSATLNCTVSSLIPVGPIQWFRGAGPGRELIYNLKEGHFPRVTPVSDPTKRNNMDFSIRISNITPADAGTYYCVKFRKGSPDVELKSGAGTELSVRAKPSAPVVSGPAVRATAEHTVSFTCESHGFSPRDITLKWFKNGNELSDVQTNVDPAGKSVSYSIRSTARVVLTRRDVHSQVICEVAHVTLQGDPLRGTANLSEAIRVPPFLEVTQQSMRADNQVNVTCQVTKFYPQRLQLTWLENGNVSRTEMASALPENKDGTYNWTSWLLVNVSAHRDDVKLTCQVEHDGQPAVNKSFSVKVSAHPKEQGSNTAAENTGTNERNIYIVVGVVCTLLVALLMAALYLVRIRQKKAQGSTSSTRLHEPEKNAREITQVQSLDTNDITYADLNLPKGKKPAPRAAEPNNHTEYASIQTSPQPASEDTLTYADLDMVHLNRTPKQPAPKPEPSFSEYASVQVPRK

B1: chimeric antibody 035c (antibody, V domains shown)
VH: QIQLVQSGPELRKPGETVKISCKASGYSFTNYAMNWVKQAPGKVLKWMGFINTYTGEPTYADDFKGRFAFSLETSASTAYLQINNLKNEDTATYFCTRTRGYYDFDGGAFDYWGQGTSLTVSS
VL: DIVMTQSQKFMSTSIGDRVSVTCKASQNVGTHLAWYQQKPGQSPKALIFSASYRYIGVPDRFTGSGSGTDFTLTITNVQSEDLAEYFCQQYNTYPLTFGAGTKLELK
B2: chimeric antibody 002c (antibody, V domains shown)
VH: EVKLEESGGGLVQPGGSMILSCVASGFTFRNYWMNWVRQSPERGLEWIAEITLKSNTYATHYAESVKGRFAISRDDSKSSFYLQMNDLRPEDTGIYYCTTFTKVVADWHLDVWGAGTTVTVSS
VL: DVLMTQTPLSLPVSLGDQASISCRSSQNIVHSNGNTYLEWYLQKPGQSPKLLIYKISNRFSGVPDRFSGSGSGTDFTLRISRVEAEDLGVYYCFQGSHVPFTFGSGTKLEIQ
B3: chimeric antibody 050c (antibody, V domains shown)
VH: QIQLVQSGPELKKPGETVKISCKASGYTFTHYSMHWVKQAPGKGLKWMGWINTETAEPTYVDDFKGRFAFSLEASASTAFFQINNLKNEDTATYFCARGGLRQGDYWGQGTTLTVSS
VL: QIVLTQSPPIMSASPGEKVTLTCSATSSVSASYLYWFQQKPGSSPKLWIYSTSNLASGVPARFSGSGSGTSYSLTISNMEPADAASYFCHQWSSYPYTFGGGTKLEIK
B4: chimeric antibody 055c (antibody, V domains shown)
VH: EVKLVESEGGLVQPGDSMKLSCTASGFTFSDYFMTWIRQVPEKGLEWIANVNYDGRSTYYLDSLKSRFIISRDNANNILYLQMSSLKSEDTATYYCAREGSQTPLYAVDYWGQGTSVTVSS
VL: DIVMTQSQKFMSTTVGDRVNITCKASQNVGTAVAWYQQKPGQSPKLLIYLASNRYTGVPDRFTGSGSGTDFTLTVSDMRSEDLADYFCQQYSIYPFTFGSGTKLEIK
B5: chimeric antibody 074c (antibody, V domains shown)
VH: QVQLQQPRAELVKPGASVMLSCKASGYTFSSYWIHWVRQGPGQGLEWIGLIHPNSGNTDCSETFKNKATLTVDTSSSTAYMQLSSLASEDSAVYYCARDGASYDWFVHWGQGTLVTVSA
VL: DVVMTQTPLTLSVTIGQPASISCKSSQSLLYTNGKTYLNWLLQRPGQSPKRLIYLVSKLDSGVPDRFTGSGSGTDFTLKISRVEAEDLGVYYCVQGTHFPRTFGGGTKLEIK
B6: chimeric antibody 022c (antibody, V domains shown)
VH: QIQLVQSGPELKKPGETVKISCKASGYTFTDYAMHWVKQAPGKGLKWMGWKNTETGESTYAEDFKGRFAFFLETSASTAYLQINNVKNEDTATYFCARGGYGSNYVMDYWGQGTSVIVSS
VL: DIQMTQSSSSFSVSLGDRVTITCKASEDIYNRLAWYQQKPGNAPRLLISGATSLETGVPSRFSGSGSGKDYTLSITSLQTEDVATYYCQQYWNSPRTFGGGTKLEIK

Assays:
[1] = target: T1, 6×His tagged C57BL/6 mouse SIRPα ECD …; assay: SPR (Biacore), antibody captured
Description: (§1) Anti-SIRPα chimeric antibodies were characterized for binding affinity against human SIRPα v1, human SIRPα v2 and C57BL/6 mouse SIRPα using Biacore (GE). Briefly the antibodies to be tested were captured to CM5 chip (GE) using Human Antibody Capture Kit (GE). The antigens of 6×His tagged human SIRPα v1, human SIRPα v2 and C57BL/6 mouse SIRPα ECD recombinant proteins were serially diluted for multiple doses and injected at 30 μl/min for 180 s. Buffer flow was maintained for dissociation of 400 s. 3 M MgCl₂ was used for chip regeneration. The association and dissociation curves were fit with 1:1 binding model, and the Ka/Kd/KD values for each antibody were calculated.

[2] = target: T3, 6×His tagged human SIRPα v1 ECD recombinant protein (human, UniProt P78324 31-373); assay: SPR (Biacore), antibody captured
T3 construct: extracellular domain; bought; also called hSIRPα V1 (SPR antigen)
Description: as §1

[3] = target: T4, 6×His tagged human SIRPα v2 ECD recombinant protein (human); assay: SPR (Biacore), antibody captured
Description: as §1

[4] = target: T2, full length cyno SIRPα stably expressed …; assay: FACS on CHOK1 cells
How it was run: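 Geometric median fluorescence gave EC50 values. CHOK1 lines stably carrying full-length SIRPα (2×10⁵ cells) were incubated with antibody for 1 h at 4 °C, washed, and stained with labelled anti-mouse or anti-human IgG for 1 h at 4 °C.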

[5] = target: T3, 6×His tagged human SIRPα v1 ECD …; assay: SPR (Biacore)
Description: as §1

[6] = target: T4, 6×His tagged human SIRPα v2 ECD …; assay: SPR (Biacore)
Description: as §1

T3 sequence (P78324 other isoform, or with tags, fused parts or gaps): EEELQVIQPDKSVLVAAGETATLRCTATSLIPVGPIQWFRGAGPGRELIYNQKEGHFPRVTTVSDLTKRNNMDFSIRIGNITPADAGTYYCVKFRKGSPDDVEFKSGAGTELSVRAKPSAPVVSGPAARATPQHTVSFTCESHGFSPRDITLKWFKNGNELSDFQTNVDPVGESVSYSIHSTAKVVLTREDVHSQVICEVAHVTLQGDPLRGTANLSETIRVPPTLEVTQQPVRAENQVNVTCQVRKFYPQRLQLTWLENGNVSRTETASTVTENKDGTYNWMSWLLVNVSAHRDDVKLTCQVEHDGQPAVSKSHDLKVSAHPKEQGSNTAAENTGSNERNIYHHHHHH
T4 sequence (chain, as listed by the source): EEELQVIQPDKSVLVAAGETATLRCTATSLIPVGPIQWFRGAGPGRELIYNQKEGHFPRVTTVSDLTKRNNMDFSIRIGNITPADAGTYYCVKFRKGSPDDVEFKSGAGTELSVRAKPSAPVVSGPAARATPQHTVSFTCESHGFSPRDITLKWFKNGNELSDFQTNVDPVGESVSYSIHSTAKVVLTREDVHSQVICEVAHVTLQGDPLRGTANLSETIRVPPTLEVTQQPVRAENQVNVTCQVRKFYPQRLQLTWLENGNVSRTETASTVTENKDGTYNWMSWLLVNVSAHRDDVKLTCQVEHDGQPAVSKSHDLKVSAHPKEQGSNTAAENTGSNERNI

Binder | Kd [1] | koff [1] | kon [1] | Kd [2] | koff [2] | kon [2] | Kd [3] | koff [3] | kon [3] | MFI at 10 nM [4] | Kd [5] | Kd [6] | binding result [1]
B1 | 5270 nM | 0.0247 s⁻¹ | 4690 M⁻¹ s⁻¹ | 1.11 nM | 0.000203 s⁻¹ | 183000 M⁻¹ s⁻¹ | 2.62 nM | 0.000154 s⁻¹ | 59000 M⁻¹ s⁻¹ | 24600 MFI | 1.11 nM | 2.62 nM | –
B2 | – | – | – | 16.1 nM | 0.00148 s⁻¹ | 92000 M⁻¹ s⁻¹ | 28.3 nM | 0.00146 s⁻¹ | 51600 M⁻¹ s⁻¹ | 17100 MFI | 16.1 nM | 28.3 nM | no binding
B3 | – | – | – | 3.07 nM | 0.000774 s⁻¹ | 252000 M⁻¹ s⁻¹ | 4.72 nM | 0.000529 s⁻¹ | 112000 M⁻¹ s⁻¹ | 20500 MFI | 3.07 nM | 4.72 nM | no binding
B4 | – | – | – | 16.6 nM | 0.00141 s⁻¹ | 85100 M⁻¹ s⁻¹ | 28.5 nM | 0.00138 s⁻¹ | 48300 M⁻¹ s⁻¹ | 8060 MFI | 16.6 nM | 28.5 nM | no binding
B5 | – | – | – | 4.4 nM | 0.000229 s⁻¹ | 52100 M⁻¹ s⁻¹ | 25.2 nM | 0.000515 s⁻¹ | 20400 M⁻¹ s⁻¹ | 12200 MFI | 4.4 nM | 25.2 nM | no binding
B6 | – | – | – | 5.9 nM | 0.00074 s⁻¹ | 125000 M⁻¹ s⁻¹ | 25.6 nM | 0.00144 s⁻¹ | 56100 M⁻¹ s⁻¹ | 23500 MFI | 5.9 nM | 25.6 nM | no binding
